From PMC10057929, “Improvement of Laccase Production by Thielavia terrestris Co3Bag1. Enhancing the Bio-Catalytic Performance of the Native Thermophilic TtLacA via Immobilization in Copper Alginate Gel Beads” (Journal of Fungi, 2023)

Substrate: CCn1c(=NN=c2sc3cc(S(=O)(=O)O)ccc3n2CC)sc2cc(S(=O)(=O)O)ccc21
Test: purified protein
Type: biochemical, Thermothielavioides terrestris
Settings: free enzyme, pH 3.0 glycine-HCl, 65 °C, 5 min, 0.05 to 5 mM ABTS

B1: TtLacA (Thermothielavioides terrestris NRRL 8126) (protein)
chain: MGLLRGLLESVSETLELFYTATATLTQESTNGLSLLGTLLARVLPLFLTNNPLPDGFPWGSLSDTNTNPYVDYPRTGVVRYYDFTVSRGIIAPDGYQRDVLLVNGAYPGPLIEANWGDTIVVTVHNNISNPEDGTTIHWHGFLQRETPWADGAPGISQCPIPPGSSYTYEFVASLFGTSWYHAHYSAQYAGGVVGPIVVYGPTHAKYDVDLGPIMLSDWYHREYFDIVKELLSPNASPRVLSDNNLIDGKMNFDCSTVAPGDNTPCTDRAGISKFKFQTGKTHRLRLINSGADGVQRFSIDQHTLTVIAEDFVPVKPYNTTVVTLGVGQRTDVLVTANAGPPDSLFWMRSNLTTCSPARQPNALAAVYYDKADTSATPSSRPWDVPDPGTCANDPLDISEPLYPIPLPKPAITQTMDIELFKNASNVTLWKFNGVSMRTDYNSPVILLANQGNFSYPPEWNVVNYQQTTAIRIIINNKGPGPHPMHLHGHNFYILHEGPGEWDGTIVRPSNPMRRDVELVRGNGHLVIQFDGAPGVWAFHCHIAWHSSGGFLASLLVQPHKVQQMHLPGDVEQNCRAWDLWTKHNVVDQIDSGT
notes: native secreted enzyme purified from culture supernatant, free (not immobilised); 70 kDa by SDS-PAGE; MS/MS peptides QPNALAAVYYDK, YDVDLGPIMLSDWYHR, VLSDNNLIDGK, LINSGADGVQR
Km: 260 µM
kcat: 13.73 s⁻¹
